Measurements: patent publication US20230340114A1 (IMMUNE ONC THERAPEUTICS, published 2023)
Numbering of substitutions follows the chain as printed. Values belong to the binder of their own block, whether it stands above or below them.

Assays:
[1] = target: T1, flag-tagged cynomolgus monkey LILRB4 expressed on CHO-K1 cells (cynomolgus monkey); assay: FACS, CHO-stable cells expressing cyno LILRB4
T1 construct: whole, on cells; also called cyno LILRB4

[2] = target: T2, human LILRB4 expressed on cells (human, UniProt Q8NHJ6 22-448); assay: FACS, CHO-stable cells expressing human LILRB4
T2 construct: whole, on cells; also called ILT3; CD85k

[3] = target: T2, human LILRB4 expressed on cells; assay: FACS, CHO-K1 cells stably expressing human LILRB4; H7K3 in PBS, T0
Protocol: (§1) EC50 FACS: Stable CHO-K1 cells expressing either human LILRB4 or flag-tagged cynomolgus monkey LILRB4 were used to determine binding capacity of stability samples of H7K3 antibody. CHO-K1 cells (1×10⁵) were stained with serially titrated stability samples followed by secondary staining with fluorescent-conjugated anti-human IgG (Biolegend). Geometric mean fluorescence (MFI) was measured and EC₅₀ were calculated by Prism.
(§2) The inventors then assessed the stability of the antibody H7K3 at 40° C. in PBS or a formulation buffer, the results of which are summarized in the Tables 2 and 3.

[4] = target: T1, flag-tagged cynomolgus monkey LILRB4 …; assay: FACS, CHO-K1 cells stably expressing flag-tagged cyno LILRB4; H7K3 in PBS, T0
Protocol: as §1, §2

[5] = target: T2, human LILRB4 expressed on cells; assay: FACS, CHO-K1 cells stably expressing human LILRB4; H7K3 in formulation buffer, T0
Protocol: as §1

[6] = target: T2, human LILRB4 expressed on cells; assay: FACS, CHO-K1 cells stably expressing human LILRB4; H7K3 in PBS after 2 weeks at 40°C
Protocol: as §1, §2

[7] = target: T2, human LILRB4 expressed on cells; assay: FACS, CHO-K1 cells stably expressing human LILRB4; H7K3 in PBS after 4 weeks at 40°C
Protocol: as §1, §2

[8] = target: T1, flag-tagged cynomolgus monkey LILRB4 …; assay: FACS, CHO-K1 cells stably expressing flag-tagged cyno LILRB4; H7K3 in formulation buffer, T0
Protocol: as §1, §2

[9] = target: T1, flag-tagged cynomolgus monkey LILRB4 …; assay: FACS, CHO-K1 cells stably expressing flag-tagged cyno LILRB4; H7K3 in PBS after 2 weeks at 40°C
Protocol: as §1, §2

[10] = target: T1, flag-tagged cynomolgus monkey LILRB4 …; assay: FACS, CHO-K1 cells stably expressing flag-tagged cyno LILRB4; H7K3 in PBS after 4 weeks at 40°C
Protocol: as §1, §2

[11] = target: T2, human LILRB4 expressed on cells; assay: FACS, CHO-K1 cells stably expressing human LILRB4; H7K3 reference row of the PBS stability table
Protocol: as §1, §2

[12] = target: T2, human LILRB4 expressed on cells; assay: FACS, CHO-K1 cells stably expressing human LILRB4; H7K3 in formulation buffer after 2 weeks at 40°C
Protocol: as §1, §2

[13] = target: T2, human LILRB4 expressed on cells; assay: FACS, CHO-K1 cells stably expressing human LILRB4; H7K3 in formulation buffer after 4 weeks at 40°C
Protocol: as §1, §2

[14] = target: T1, flag-tagged cynomolgus monkey LILRB4 …; assay: FACS, CHO-K1 cells stably expressing flag-tagged cyno LILRB4; H7K3 reference row of the PBS stability table
Protocol: as §1

[15] = target: T1, flag-tagged cynomolgus monkey LILRB4 …; assay: FACS, CHO-K1 cells stably expressing flag-tagged cyno LILRB4; H7K3 in formulation buffer after 2 weeks at 40°C
Protocol: as §1, §2

[16] = target: T1, flag-tagged cynomolgus monkey LILRB4 …; assay: FACS, CHO-K1 cells stably expressing flag-tagged cyno LILRB4; H7K3 in formulation buffer after 4 weeks at 40°C
Protocol: as §1, §2

[17] = target: T1, flag-tagged cynomolgus monkey LILRB4 …; assay: FACS, CHO-K1 cells stably expressing flag-tagged cyno LILRB4; H7K3 reference row of the formulation buffer stability table
Protocol: as §1

[18] = target: T2, human LILRB4 expressed on cells; assay: FACS, CHO-K1 cells stably expressing human LILRB4; H7K3 reference row of the formulation buffer stability table; H7K3 reference row of Table 3 (formulation buffer), not a T0 or 40° C. sample
Protocol: as §1

[19] = target: T2, human LILRB4 expressed on cells; assay: cell-based or functional assay
[20] = target: T2, human LILRB4 expressed on cells; assay: FACS (Geo MFI) on THP-1 cells; panel assigned to THP-1 by the order in legend paragraph 86
[21] = target: T2, human LILRB4 expressed on cells; assay: FACS (Geo MFI) on normal human monocytes; panel assigned to monocytes by the order in legend paragraph 86

EC50 [1]: 1.33 nM
EC50 [2]: 0.543 nM
EC50 [3]: 0.734 nM
EC50 [4]: 1.21 nM
EC50 [5]: 0.557 nM
EC50 [6]: 0.895 nM
EC50 [7]: 0.696 nM
EC50 [8]: 0.883 nM
EC50 [9]: 1.71 nM
EC50 [10]: 1.72 nM
EC50 [11]: 0.65 nM
EC50 [12]: 1.42 nM
EC50 [13]: 2.14 nM
EC50 [14]: 1.19 nM
EC50 [15]: 3.81 nM
EC50 [16]: 6.05 nM
EC50 [17]: 1.19 nM
EC50 [18]: 0.65 nM
B1: H7K3 (antibody, V domains shown)
VH: EVQLVESGGGLVQPGGSLRLSCAASGFSLSSSYWISWVRQAPGKGLEWIGSIDSGSVGITYYATWVKGRFTISRDNSKNTLYLQMNSLRAEDTAVYYCARHGDNWALDLWGQGTLVTVSS
VL: DIQMTQSPSTLSASVGDRVTITCRASQSINSWLAWYQQKPGKAPKLLIYKASTLASGVPSRFSGSGSGTEFTLTISSLQPDDFATYYCQHGYIRGDLDNVFGGGTKVEIK
notes: Humanized from rabbit antibody B4-193; also called humanized anti-LILRB4 antibody; WT

EC50 [1]: 1.12 nM
EC50 [2]: 0.415 nM
EC50 (read off the curve) [20]: ~0.5 nM
EC50 (read off the curve) [21]: ~0.3 nM
B2: H7K3m5 (antibody, V domains shown)
VH: B1 VH
VL: B1 VL with N30S
notes: Full-length IgG; human IgG1 is used as its isotype control; Only variable regions are tied to the name; Wild type (fucosylated) form unless said otherwise; also called variant 9; K3m5 (N/S)
T-cell cytotoxicity against THP-1-GFP cells, mean EC50 (n=3) [19]: 0.208 nM
